Experimental data from patent US20190127454A1 (ACADEMIA SINICA, published 2019).

T1: SCUBE3 (UniProt Q8IX30 21-993, limits assumed)
T1 construct: also called SCUBE3 protein
T1 sequence (looked up): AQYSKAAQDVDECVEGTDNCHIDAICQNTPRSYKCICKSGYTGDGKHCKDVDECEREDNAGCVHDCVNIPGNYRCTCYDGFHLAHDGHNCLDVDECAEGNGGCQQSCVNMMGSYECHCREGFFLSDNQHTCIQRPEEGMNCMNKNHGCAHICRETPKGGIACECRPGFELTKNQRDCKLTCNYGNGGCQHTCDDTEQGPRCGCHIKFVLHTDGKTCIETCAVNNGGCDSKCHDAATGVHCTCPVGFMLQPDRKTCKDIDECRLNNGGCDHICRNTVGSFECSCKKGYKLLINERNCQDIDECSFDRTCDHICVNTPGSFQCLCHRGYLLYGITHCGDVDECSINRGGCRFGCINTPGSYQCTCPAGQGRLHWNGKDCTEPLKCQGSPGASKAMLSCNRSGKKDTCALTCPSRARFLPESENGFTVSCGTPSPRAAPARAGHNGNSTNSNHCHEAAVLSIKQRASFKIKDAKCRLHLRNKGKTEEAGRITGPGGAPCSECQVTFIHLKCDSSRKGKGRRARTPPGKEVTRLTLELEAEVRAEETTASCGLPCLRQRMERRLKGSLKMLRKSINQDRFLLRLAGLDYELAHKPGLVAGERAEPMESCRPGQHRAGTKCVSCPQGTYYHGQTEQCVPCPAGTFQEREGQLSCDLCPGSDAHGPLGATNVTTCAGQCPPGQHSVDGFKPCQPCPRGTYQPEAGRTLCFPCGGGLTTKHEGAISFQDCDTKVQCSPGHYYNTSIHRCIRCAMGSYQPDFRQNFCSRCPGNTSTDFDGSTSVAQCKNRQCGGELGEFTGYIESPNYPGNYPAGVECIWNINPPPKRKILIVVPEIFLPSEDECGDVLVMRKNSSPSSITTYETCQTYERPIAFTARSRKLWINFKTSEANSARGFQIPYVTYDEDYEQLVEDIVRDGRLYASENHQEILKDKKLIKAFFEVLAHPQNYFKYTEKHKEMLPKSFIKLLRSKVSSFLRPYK

T2: SCUBE1 (UniProt Q8IWY4 24-988, limits assumed)
T2 construct: also called SCUBE1 protein
T2 sequence (looked up): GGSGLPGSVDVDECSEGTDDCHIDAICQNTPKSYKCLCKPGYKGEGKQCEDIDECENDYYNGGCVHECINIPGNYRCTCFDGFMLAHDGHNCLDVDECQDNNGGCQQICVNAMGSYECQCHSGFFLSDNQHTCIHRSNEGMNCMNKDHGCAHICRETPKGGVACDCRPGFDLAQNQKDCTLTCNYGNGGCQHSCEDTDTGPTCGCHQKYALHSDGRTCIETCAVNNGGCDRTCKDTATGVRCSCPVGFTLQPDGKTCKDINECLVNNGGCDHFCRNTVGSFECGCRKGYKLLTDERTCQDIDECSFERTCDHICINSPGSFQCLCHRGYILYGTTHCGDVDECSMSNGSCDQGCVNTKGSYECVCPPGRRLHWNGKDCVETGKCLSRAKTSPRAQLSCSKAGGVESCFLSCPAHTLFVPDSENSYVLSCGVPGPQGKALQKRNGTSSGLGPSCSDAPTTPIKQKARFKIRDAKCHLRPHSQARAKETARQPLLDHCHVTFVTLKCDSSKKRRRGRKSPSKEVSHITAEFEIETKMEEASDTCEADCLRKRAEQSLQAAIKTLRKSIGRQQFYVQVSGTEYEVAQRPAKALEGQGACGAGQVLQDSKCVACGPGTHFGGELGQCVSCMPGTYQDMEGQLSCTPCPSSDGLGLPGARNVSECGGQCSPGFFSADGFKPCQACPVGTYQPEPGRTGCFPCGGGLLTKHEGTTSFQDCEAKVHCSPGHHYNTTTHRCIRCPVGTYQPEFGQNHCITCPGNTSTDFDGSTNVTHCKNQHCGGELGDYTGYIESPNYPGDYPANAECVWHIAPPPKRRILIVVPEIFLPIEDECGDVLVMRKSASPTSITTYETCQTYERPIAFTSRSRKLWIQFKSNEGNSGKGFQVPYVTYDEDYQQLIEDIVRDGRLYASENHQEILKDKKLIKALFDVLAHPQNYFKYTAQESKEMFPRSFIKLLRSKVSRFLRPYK

B1: recombinant VEGF165 protein (ligand, UniProt P15692-4 27-191, looked up)
chain: APMAEGGGQNHHEVVKFMDVYQRSYCHPIETLVDIFQEYPDEIEYIFKPSCVPLMRCGGCCNDEGLECVPTEESNITMQIMRIKPHQGQHIGEMSFLQHNKCECRPKKDRARQENPCGPCSERRKHLFVQDPQTCKCSCKNTDSRCKARQLELNERTCRCDKPRR
notes: Bought reagent; also called VEGF-A165
B2: human SCUBE2 (Signal peptide-CUB-EGF domain-containing protein 2) (receptor)
chain: RAAGPQEDVDECAQGLDDCHADALCQNTPTSYKCSCKPGYQGEGRQCEDIDECGNELNGGCVHDCLNIPGNYRCTCFDGFMLAHDGHNCLDVDECLENNGGCQHTCVNVMGSYECCCKEGFFLSDNQHTCIHRSEEGLSCMNKDHGCSHICKEAPRGSVACECRPGFELAKNQRDCILTCNHGNGGCQHSCDDTADGPECSCHPQYKMHTDGRSCLEREDTVLEVTESNTTSVVDGDKRVKRRLLMETCAVNNGGCDRTCKDTSTGVHCSCPVGFTLQLDGKTCKDIDECQTRNGGCDHFCKNIVGSFDCGCKKGFKLLTDEKSCQDVDECSLDRTCDHSCINHPGTFACACNRGYTLYGFTHCGDTNECSINNGGCQQVCVNTVGSYECQCHPGYKLHWNKKDCVEVKGLLPTSVSPRVSLHCGKSGGGDGCFLRCHSGIHLSSGLQGAYSVTCGSSSPLRNKQQKSNDSAFGDVTTIRTSVTFKLNEGKCSLKNAELFPEGLRPALPEKHSSVKESFRYVNLTCSSGKQVPGAPGRPSTPKEMFITVEFELETNQKEVTASCDLSCIVKRTEKRLRKAIRTLRKAVHREQFHLQLSGMNLDVAKKPPRTSERQAESCGVGQGHAENQCVSCRAGTYYDGARERCILCPNGTFQNEEGQMTCEPCPRPGNSGALKTPEAWNMSECGGLCQPGEYSADGFAPCQLCALGTFQPEAGRTSCFPCGGGLATKHQGATSFQDCETRVQCSPGHFYNTTTHRCIRCPVGTYQPEFGKNNCVSCPGNTTTDFDGSTNITQCKNRRCGGELGDFTGYIESPNYPGNYPANTECTWTINPPPKRRILIVVPEIFLPIEDDCGDYLVMRKTSSSNSVTTYETCQTYERPIAFTSRSKKLWIQFKSNEGNSARGFQVPYVTYDEDYQELIEDIVRDGRLYASENHQEILKDKKLIKALFDVLAHPQNYFKYTAQESREMFPRSFIRLLRSKVSRFLRPYK
notes: Signal peptide a.a; 1-37 and mature protein a.a; also GST.SCUBE2-CUB); also called FLAG.SCUBE2-FL; FLAG-tagged SCUBE2
B3: anti-SCUBE2 mAb clone SP-B2 (antibody, IgG1, V domains shown)
VH: EVQRVESGGGLVKPGGSLKLSCAASGFTFRNYAMSWVRQTTEKKLEWVATINDVGSYTYFPASVKGRFTVSRDNTKNTLYLQMSSLRSEDTAMYYCVTSSDTVPHHHALDYWGQGSSVTVSS
VL: DIVMTQPPASLAVSLGQRATVFCRASQNVDSRGISFMHWYQQKPGQPPKLLIYAASNLESGIPARFRGSGSGTDFTLNIHPVEEEDVATYYCQQSVEDLTFGGGTKLELK
B4: anti-SCUBE2 mAb clone EGF-C3 (antibody, IgG2a, V domains shown)
VH: EVKLVESGGGLVQPGGSRKLSCVASGFTISSFGMHWVRQAPERGLEWVAYISSGSNTIYYADTVKGRFTISRDNPKNTLFLQMTSLWSEDTAMYYCARSGTLDGWFTYWGRGTLVTVST
VL: DIVMTQPPLSLPVSLGDQASISCRSSQSILHSNGNTYLEWYLQKPGQSPKLLIYKLFNRFSGVPDRFNGSGSGTDFTLKISRAEAEDLGVYYCLQGSHVPPTFGAGTKLEIK
B5: anti-SCUBE2 mAb clone SP-A1 (antibody, IgG1, V domains shown)
VH: EVQLQQSGPELVKPGASVKVSCKASGYAFTSYNMYWVKQSHGKSLEWIGYIDPYNGDTNNNQKFKGKATLTVDKSSSTAYMHLNSLTSEDSAVYYCARSYRYLAWFAYWGQGTLVTVSA
VL: DIVMTQSPLSLPVSLGDQASISCRSSQSIVHSNGNTYLEWYLQKPGQSPKLLIYTVSNRFSGVPDRFSGSGSGTDFTLRISRVEAEDLGVYYCFQGSHIPYTFGGGTKLELK
notes: Mouse hybridoma mAb, IgG1
B6: anti-SCUBE2 mAb clone SP-B1 (antibody, IgG1, V domains shown)
VH: B5 VH
VL: B5 VL
notes: also called SP.B1 mAb
B7: anti-SCUBE2 mAb clone CR-#5 (antibody, IgG2b, V domains shown)
VH: EVQRVESGGDLVKPGGTLKLSCAASGFTFRNYGMSWVRQTPDKRLEWVATISSGGVYIYYPDSVKGRFTISRDNAKNTLFLQMSSLRSEDSAMYYCARDDYDGRGYFDYWGQGTTLTVSS
VL: DIVMSQSPSSLAVSAGEKVTMSCKSSQSLLNSRTRKNYLAWYQQKPGQSPKLLIYWASTRESGVPDRFTGSGSGTDFTLTISSVQAEDLAVYYCKQSYNLPTFGSGTKLDIK

Experiments:
[1] = biological target: T1, SCUBE3; test: co-immunoprecipitation
[2] = biological target: T2, SCUBE1; test: co-immunoprecipitation
[3] = biological target: VEGFR1 (UniProt P17948 27-1338, limits assumed); test: co-immunoprecipitation with anti-SCUBE2 antibody
[4] = biological target: EGFR (UniProt P00533 25-1210, limits assumed); test: co-immunoprecipitation with anti-SCUBE2 antibody
[5] = biological target: B2; test: domain mapping (FIG. 12A); method not described
[6] = biological target: T1, SCUBE3; test: western blot of recombinant SCUBE proteins expressed in HEK-293T cells (FIG. 13A)
[7] = biological target: T2, SCUBE1; test: as above

Chain of VEGFR1 (P17948 27-1338 limits assumed): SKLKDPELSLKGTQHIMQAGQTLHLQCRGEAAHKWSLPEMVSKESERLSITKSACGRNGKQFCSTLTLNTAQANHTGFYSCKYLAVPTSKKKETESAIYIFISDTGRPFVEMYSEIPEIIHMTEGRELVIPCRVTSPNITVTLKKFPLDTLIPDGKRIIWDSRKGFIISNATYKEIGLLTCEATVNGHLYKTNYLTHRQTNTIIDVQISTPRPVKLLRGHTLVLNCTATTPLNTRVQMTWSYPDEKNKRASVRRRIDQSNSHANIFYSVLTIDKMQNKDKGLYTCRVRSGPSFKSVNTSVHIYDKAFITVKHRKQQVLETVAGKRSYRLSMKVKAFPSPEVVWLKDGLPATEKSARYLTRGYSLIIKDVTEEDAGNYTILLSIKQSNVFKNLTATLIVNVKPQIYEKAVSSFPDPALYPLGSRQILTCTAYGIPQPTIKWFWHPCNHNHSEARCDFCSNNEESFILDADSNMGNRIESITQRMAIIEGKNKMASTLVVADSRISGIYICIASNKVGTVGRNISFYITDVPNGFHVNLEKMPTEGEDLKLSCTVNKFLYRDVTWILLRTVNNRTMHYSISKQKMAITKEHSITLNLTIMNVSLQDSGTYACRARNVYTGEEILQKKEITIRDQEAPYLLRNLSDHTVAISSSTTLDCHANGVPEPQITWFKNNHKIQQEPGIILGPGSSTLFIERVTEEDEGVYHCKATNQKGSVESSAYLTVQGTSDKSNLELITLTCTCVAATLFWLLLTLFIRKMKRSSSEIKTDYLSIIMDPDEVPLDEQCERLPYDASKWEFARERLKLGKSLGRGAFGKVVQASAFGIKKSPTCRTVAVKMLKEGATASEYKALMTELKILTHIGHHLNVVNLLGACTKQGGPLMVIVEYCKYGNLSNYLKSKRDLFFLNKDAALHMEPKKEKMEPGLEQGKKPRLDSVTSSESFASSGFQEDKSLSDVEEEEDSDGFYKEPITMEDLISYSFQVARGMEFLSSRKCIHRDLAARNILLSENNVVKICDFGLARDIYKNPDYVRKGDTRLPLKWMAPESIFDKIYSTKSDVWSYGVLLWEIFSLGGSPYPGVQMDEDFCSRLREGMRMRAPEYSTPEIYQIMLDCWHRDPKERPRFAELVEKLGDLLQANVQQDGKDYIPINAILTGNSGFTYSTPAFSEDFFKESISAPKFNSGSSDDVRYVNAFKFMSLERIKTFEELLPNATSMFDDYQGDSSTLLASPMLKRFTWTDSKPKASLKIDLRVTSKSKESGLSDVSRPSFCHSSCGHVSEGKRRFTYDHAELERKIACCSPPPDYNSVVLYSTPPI

Binder: B1
- binding result [1]: no binding
- binding result [2]: no binding

Binder: B2
- binding result [3]: no binding
- binding result [4]: no binding

Binder: B3
- binding result [5]: binds

Binder: B4
- binding result [5]: binds

Binder: B5
- binding result [5]: binds

Binder: B6
- binding result [5]: binds
- binding result [6]: no binding
- binding result [7]: no binding

Binder: B7
- binding result [5]: binds
